Consider two proteins from paper PMC4613530, “Structure-based design and functional studies of novel noroviral 3C protease chimaeras offer insights into substrate specificity” (Biochemical Journal, 2014).

This series concerns the molecule itself. Briefly: non-reducing PAGE; purified NS6 proteases analysed by non-reducing PAGE; major band at approximately 18 kDa, minor band at approximately 36 kDa taken as the dimer.

B1: wild-type murine norovirus NS6 protease (enzyme)
chain: APVSIWSRVVQFGTGWGFWVSGHVFITAKHVAPPKGTEIFGRKPGDFTVTSSGDFLKYYFTSAVRPDIPAMVLENGCQEGVVASVLVKRASGEMLALAVRMGSQAAIKIGSAVVHGQTGMLLTGSNAKAQDLGTIPGDCGCPYVYKKGNTWVVIGVHVAATRSGNTVIAATHGEPTLEALEFQ
notes: NS6 protease (3C-like protease), cut product of the ORF1 polyprotein of murine norovirus 1; expressed flanked by 41 residues of NS5 and 41 residues of NS7 and released by self-cleavage as the 19 kDa mature NS6; its strain may differ at a few residues from the UniProt entry; The tags sit upstream of the NS5 stretch and leave with it on self-excision; also called wtMNV NS6; MNV NS6; not shown: His …
For the protein B1, the binding result is given as “binds”.

B2: wild-type Southampton virus NS6 protease (enzyme)
chain: APPTLWSRVTKFGSGWGFWVSPTVFITTTHVIPTSAKEFFGEPLTSIAIHRAGEFTLFRFSKKIRPDLTGMILEEGCPEGTVCSVLIKRDSGELLPLAVRMGAIASMRIQGRLVHGQSGMLLTGANAKGMDLGTIPGDCGAPYVYKRANDWVVCGVHAAATKSGNTVVCAVQASEGETTLE
notes: NS6 protease (3C-like protease), cut product of the ORF1 polyprotein of Southampton virus (human norovirus); also called wtSV NS6; SV NS6
B2: the binding result is given as “binds”.
